This note sets out measurements from EP4786495A1 (Nanjing Leads Biolabs Co., Ltd., dated 2026).

T1: human BDCA2 protein (Kactus Biosystems, Cat# BCA-HM402) (human, UniProt Q8WTT0 45-213)
T1 construct: also called Human BDCA2-His
T1 sequence: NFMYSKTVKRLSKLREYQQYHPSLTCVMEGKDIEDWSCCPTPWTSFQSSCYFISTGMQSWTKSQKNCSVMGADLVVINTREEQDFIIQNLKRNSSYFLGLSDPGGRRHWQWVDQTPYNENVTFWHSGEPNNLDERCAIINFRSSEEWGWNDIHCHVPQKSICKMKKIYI

T2: human APRIL protein (ACRO Biosystems, Cat. No.: APL-H52D1) (human, UniProt O75888 115-250, limits assumed)
T2 sequence (looked up): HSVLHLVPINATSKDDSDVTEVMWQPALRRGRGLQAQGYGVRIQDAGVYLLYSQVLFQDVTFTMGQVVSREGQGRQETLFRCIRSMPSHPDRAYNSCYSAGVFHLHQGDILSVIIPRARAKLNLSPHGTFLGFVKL

B1: bispecific fusion protein BI-9D2-3GS4 (bispecific antibody, human IgG1, kappa)
heavy: not shown
light: ETVLTQSPATLSLSPGERATLSCRASSSVSYMYWFQQKPGQAPRLLIYSTSNLASGIPARFSGSGSGTDYTLTISSLEPEDFAVYYCQQRRNYPHTFGGGTKVEIKRTVAAPSVFIFPPSDEQLKSGTASVVCLLNNFYPREAKVQWKVDNALQSGNSQESVTEQDSKDSTYSLSSTLTLSKADYEKHKVYACEVTHQGLSSPVTKSFNRGEC
B2: bispecific fusion protein BI-9ND2-2GS4 (bispecific antibody, human IgG1, kappa)
heavy: not shown
light: B1 light
B3: bispecific fusion protein BI-9ND2-4GS4 (bispecific antibody, human IgG1, kappa)
heavy: not shown
light: B1 light
B4: bispecific fusion protein BI-9D2-1GS4 (bispecific antibody, human IgG1, kappa)
heavy: not shown
light: B1 light
B5: bispecific fusion protein BI-9D2-2GS4 (bispecific antibody, human IgG1, kappa)
heavy: not shown
light: B1 light
B6: bispecific fusion protein BI-9ND2-3GS4 (bispecific antibody, human IgG1, kappa)
heavy: not shown
light: B1 light

human BAFF protein (ACRO Biosystems, Cat. No.: BAF-H52D4), sequence (Q9Y275 134-285 limits assumed): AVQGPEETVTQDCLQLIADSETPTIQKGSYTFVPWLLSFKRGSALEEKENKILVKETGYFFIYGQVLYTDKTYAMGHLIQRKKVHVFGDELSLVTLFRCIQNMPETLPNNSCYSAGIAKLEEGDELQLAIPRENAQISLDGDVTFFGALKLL

One test concerns the target human BAFF protein (ACRO Biosystems, Cat. No.: BAF-H52D4) (human, UniProt Q9Y275 134-285). Put plainly: BLI Octet RED96e, protein captured on AHC sensor, BAFF 100 nM in solution.
Take B1: the equilibrium dissociation constant (Kd) was below 1 pM, the “Response (nm)” value was found to be 0.34 nm, the koff was below 1e-07 s⁻¹ and the kon was found to be 422000 M⁻¹ s⁻¹.

As for B2, the Kd was below 1 pM, the “Response (nm)” value was found to be 0.492 nm, the koff is below 1e-07 s⁻¹ and the kon stood at 456000 M⁻¹ s⁻¹.

With B3, the Kd was below 1 pM, the “Response (nm)” value was found to be 0.468 nm, the koff was below 1e-07 s⁻¹ and the kon was found to be 522000 M⁻¹ s⁻¹.

Turning to B4, the Kd was below 1 pM, the “Response (nm)” value was found to be 0.299 nm, the koff was below 1e-07 s⁻¹ and the on-rate (kon) was found to be 400000 M⁻¹ s⁻¹.

Turning to B5, the Kd is below 1 pM, the “Response (nm)” value worked out at 0.302 nm, the koff was below 1e-07 s⁻¹ and the kon was determined as 412000 M⁻¹ s⁻¹.

Turning to B6, the Kd was below 1 pM, the “Response (nm)” value amounted to 0.487 nm, the koff is below 1e-07 s⁻¹ and the kon was determined as 489000 M⁻¹ s⁻¹.

The next test deals with T1, human BDCA2 protein (Kactus Biosystems, …). Put plainly: BLI Octet RED96e, protein captured on AHC sensor, BDCA2 100 nM in solution.
On to B1, for which the dissociation constant (Kd) was 234 pM, the “Response (nm)” value came out at 0.551 nm, the koff is 3.58e-05 s⁻¹ and the kon was determined as 153000 M⁻¹ s⁻¹.

B2: the Kd is below 1 pM, the “Response (nm)” value stood at 0.466 nm, the koff was below 1e-07 s⁻¹ and the kon worked out at 115000 M⁻¹ s⁻¹.

In the case of B3, the Kd is below 1 pM, the “Response (nm)” value turned out to be 0.484 nm, the koff was below 1e-07 s⁻¹ and the kon came out at 125000 M⁻¹ s⁻¹.

Turning to B4, the Kd was below 1 pM, the “Response (nm)” value came out at 0.591 nm, the koff is below 1e-07 s⁻¹ and the kon turned out to be 149000 M⁻¹ s⁻¹.

B5: the Kd is below 1 pM, the “Response (nm)” value came to 0.56 nm, the koff was below 1e-07 s⁻¹ and the kon was 151000 M⁻¹ s⁻¹.

On to B6, for which the Kd was below 1 pM, the “Response (nm)” value was 0.473 nm, the koff was below 1e-07 s⁻¹ and the kon was found to be 117000 M⁻¹ s⁻¹.

Another test concerns the target T2, human APRIL protein (ACRO Biosystems, …). Nature of the test: BLI Octet RED96e, protein captured on AHC sensor, APRIL 100 nM in solution.
On to B1, for which the equilibrium dissociation constant (Kd) turned out to be 0.616 nM, the “Response (nm)” value was found to be 0.251 nm, the dissociation rate constant (koff) came out at 0.000582 s⁻¹ and the kon is 944000 M⁻¹ s⁻¹.

Turning to B2, the equilibrium dissociation constant (Kd) was 0.275 nM, the “Response (nm)” value turned out to be 0.339 nm, the koff stood at 0.000257 s⁻¹ and the kon was determined as 937000 M⁻¹ s⁻¹.

Turning to B3, the Kd was determined as 0.0667 nM, the “Response (nm)” value was 0.298 nm, the koff amounted to 7.79e-05 s⁻¹ and the on-rate constant (kon) worked out at 1.17e+06 M⁻¹ s⁻¹.

For B4, the affinity, expressed as Kd, was 0.724 nM; the “Response (nm)” value came to 0.261 nm; the koff worked out at 0.000589 s⁻¹; the kon was determined as 813000 M⁻¹ s⁻¹.

Consider B5, for which the dissociation constant Kd was 0.391 nM, the “Response (nm)” value was 0.242 nm, the koff worked out at 0.000339 s⁻¹ and the kon turned out to be 866000 M⁻¹ s⁻¹.

For B6, binding was put at a Kd of 0.0944 nM, the “Response (nm)” value is 0.327 nm, the koff is 9.99e-05 s⁻¹ and the on-rate constant (kon) stood at 1.06e+06 M⁻¹ s⁻¹.
